Read-outs that look alike come from different tables or passages of the source.
B1: Ph-CA1: fusion peptide of colicin Ia with Candida albicans alpha-mating pheromone c-terminal to the colicin Ia; SEQ ID NO:5; from plasmid pCHCCA1 (protein)
chain: DAINFTTEFLKSVSEKYGAKAEQLAREMAGQAKGKKIRNVEEALKTYEKYRADINKKINAKDRAAIAAALESVKLSDISSNLNRFSRGLGYAGKFTSLADWITEFGKAVRTENWRPLFVKTETIIAGNAATALVALVFSILTGSALGIIGYGLLMAVTGALIDESLVEKANKFWGIGFRLYNFGYFEPGK
modifications: Amino acid sequence of Ph-CA1
notes: fusion peptide of colicin Ia with Candida albicans alpha-mating pheromone c-terminal to the colicin Ia; from plasmid pCHCCA1
B2: Ph-CA2: fusion peptide of colicin Ia with Candida albicans alpha-mating pheromone n-terminal to the colicin Ia; SEQ ID NO:7; from plasmid pCHCCA2 (protein)
chain: GFRLYNFGYFEPGKDAINFTTEFLKSVSEKYGAKAEQLAREMAGQAKGKKIRNVEEALKTYEKYRADINKKINAKDRAAIAAALESVKLSDISSNLNRFSRGLGYAGKFTSLADWITEFGKAVRTENWRPLFVKTETIIAGNAATALVALVFSILTGSALGIIGYGLLMAVTGALIDESLVEKANKFWGI
modifications: Amino acid sequence of Ph-CA2
notes: fusion peptide of colicin Ia with Candida albicans alpha-mating pheromone n-terminal to the colicin Ia; from plasmid pCHCCA2

Experiments:
[1] = tested on: ATCC 10231 C. albicans cells; experiment: cell growth inhibition assay in M-H liquid medium (turbidity, filament sedimentation, microscopy); assay type: cell-based, Candida albicans; conditions: for spores under microscope: 2 ul treated medium on a slide, Ph-CA1 10 ug/ml, amphotericin B 2 ug/ml, FIG. 5
Source text: FIG. 4 depicts the inhibition effects of Ph-CA against the growth of ATCC 10231 C. albicans cells in M-H liquid medium. The amount of sedimentary fungal filaments at the bottom of flasks indicated the inhibition effects of treatment agents. (A) Control, (B) fluconazole, (C) amphotericin B, (D) Ph-SA, (E) Ph-CA2 produced by pCHCCA2 plasmid and (F) Ph-CA1.
FIG. 5 depicts the inhibition effects of Ph-CA against the growth of C. albicans cells in liquid medium. The amount of spores and filaments of ATCC 10231 C. albicans cells indicated the inhibition effects. (A) Control, (B) fluconazole, (C) amphotericin B, (D) Ph-SA, (E) Ph-CA2 (F) Ph-CA1. X400.
In vitro cell growth inhibition assays were performed in 100 ml Klett flasks containing 10 ml of M-H medium which were monitored turbimetrically with a BioRad 550 microplate reader at OD595 nm every 60 min. The filament (mycelium) precipitation at the bottom of flask was counted with a digital photo-recorder every 6 hrs. Cells were inoculated to an initial cell density of about 2.5×10^5 CFU/ml and shaken at 200 rpm on an orbital shaker at 35° C. Sedimentary fungal filaments appeared in about 36 hrs growing.
Ph-CA1 and Ph-CA2 were added at the start of the culture. The same amount of borate stock solution (50 mM borate, PH9.0), Ph-SA (pheromonicin constructed by colicin Ia and staphylococcal pheromone AgrD1)(10 ug/ml) and several antibiotics preparations (2 ug/ml amphotericin B, 6 ug/ml fluconazole) were used as controls. All assays were expressed in turbidometric absorbance units measured at 595 nm and pictures of the filament sedimentation at the bottom of the flask were taken.

Magnaporthe grisea [2] = assay type: in vivo, rice (seed, gangyou 725); conditions: for Grades of impaired leaves 0 (number of leaves) / Grades of impaired leaves 1 (number of leaves) / Grades of impaired leaves 3 (number of leaves) / Grades of impaired leaves 5 (number of leaves) / Incident rate / Infected index / Protecting efficacy: seven days after treatment, sprayed twice: tricyclazole 0.5 and 1 mg/ml, Ph-CA1 1 and 2 ug/ml, 200 leaves
Magnaporthe grisea [3] = assay type: in vivo, rice (seed, gangyou 725); conditions: sprayed once at head stage: tricyclazole 1 mg/ml, Ph-CA1 2 ug/ml
[4] = tested on: Candida albicans (ATCC 10231); assay type: cell-based
[5] = tested on: Cryptococcus neoformans (Huaxi 30168 strain); assay type: cell-based
[6] = tested on: Aspergillus flavus (Huaxi 30255 strain); assay type: cell-based
[7] = tested on: Magnaporthe grisea (ACCC 30320 strain); assay type: cell-based; conditions: PDA solid medium; 100 ul Ph-CA1 25 and 50 ug/ml; FIG. 9
[8] = tested on: Fusarium moniforme (ACCC 30133 strain); assay type: cell-based
[9] = tested on: Cryptococcus neoformans, Aspergillus flavus, Magnaporthe grisea and Fusarium moniforme cells; assay type: cell-based; conditions: on a molar basis
[10] = tested on: ATCC 10231 C. albicans cells; experiment: fluorescent imaging with FITC/propidium iodide; assay type: cell-based, Candida albicans; conditions: 10 ug/ml, 24 hrs; 50 nM FITC/600 nM propidium iodide
Experimental: FIG. 6 depicts the fluorescent imaging of ATCC 10231 C. albicans cells treated by Ph-CA1 and stained with 50 nM FITC/600 nM propidium iodide. […] X400.

C. albicans (ATCC 10231) = experiment: systemic candidiasis in mice, survival; assay type: in vivo, KungMing mice
Experimental: KungMing mice, half male and half female, weighing 18-22 g were injected intraperitoneally with 0.5 ml of C. albicans (ATCC 10231), 10^8 CFU/ml. One hour after C. albicans injection, mice were injected intraperitoneally with 0.9% saline […] alone as control (n=10) (C), or with amphotericin B (n=10, 1 ug/gm/day) (B), or with Ph-CA1 (n=10, 5 ug/gm/day) (A) daily for 14 days. The number of surviving animals was determined every 24 hours (FIG. 11).
KungMing mice, half male and half female, weighing 18-22 g were injected intraperitoneally with 0.7 ml of C. albicans (ATCC 10231), 10^8 CFU/ml. One hour after C. albicans injection, mice were injected in the tail vein with 0.9% saline alone as control (n=10) (C), or with amphotericin B (n=10, 1 ug/gm) (B), or with Ph-CA1 (n=10, 5 ug/gm) (A). The mice were then injected intraperitoneally with 0.9% saline alone, or with amphotericin B (n=10, 1 ug/gm), or with Ph-CA1 (n=10, 5 ug/gm) each day. The number of surviving animals was determined every 24 hours (FIG. 12).

[11] = repeated intraperitoneal dosing in mice, bodyweight and histology; assay type: in vivo, KungMing mice; conditions: 200 ug/mouse/day intraperitoneally for 20 days
Experimental: KungMing mice (n=10), half male and half female, weighing 18-22 g were injected intraperitoneally with Ph-CA1 (200 ug/mouse/day) for 20 days. The bodyweight of all mice was increased.

Row | Molecule | spores under microscope [1] | Grades of impaired leaves 0 (number of leaves) (Magnaporthe grisea [2]) | Grades of impaired leaves 1 (number of leaves) (Magnaporthe grisea [2]) | Grades of impaired leaves 3 (number of leaves) (Magnaporthe grisea [2]) | Grades of impaired leaves 5 (number of leaves) (Magnaporthe grisea [2]) | Incident rate (Magnaporthe grisea [2]) | Infected index (Magnaporthe grisea [2]) | Protecting efficacy (Magnaporthe grisea [2]) | Damage rate (Magnaporthe grisea [3]) [%] | Grades of impaired ears 0 (number of ears) (Magnaporthe grisea [3]) | Grades of impaired ears 1 (number of ears) (Magnaporthe grisea [3]) | Grades of impaired ears 3 (number of ears) (Magnaporthe grisea [3]) | Grades of impaired ears 5 (number of ears) (Magnaporthe grisea [3]) | Grades of impaired ears 7 (number of ears) (Magnaporthe grisea [3]) | Grades of impaired ears 9 (number of ears) (Magnaporthe grisea [3]) | Impaired ears rate (Magnaporthe grisea [3]) [%] | Infected index (Magnaporthe grisea [3]) | antifungal effect on Candida albicans in vitro [1] | other results
1 | C[C@@H]1[C@H](O)[C@@H](C)/C=C/C=C/C=C/C=C/C=C/C=C/C=C/[C@H](O[C@@H]2O[C@H](C)[C@@H](O)[C@H](N)[C@@H]2O)C[C@@H]2O[C@](O)(C[C@@H](O)C[C@@H](O)[C@H](O)CC[C@@H](O)C[C@@H](O)CC(=O)O[C@H]1C)C[C@H](O)[C@H]2C(=O)O [amphotericin B, reference compound] | scarcely observed |  |  |  |  |  |  |  |  |  |  |  |  |  |  |  |  |  | effect on growth of C. albicans ([1]; 2 ug/ml, M-H liquid medium): completely inhibited
2 | OC(Cn1cncn1)(Cn1cncn1)c1ccc(F)cc1F [Fluconazole, fluconazole, reference compound] |  |  |  |  |  |  |  |  |  |  |  |  |  |  |  |  |  |  | effect on growth of C. albicans ([1]; 6 ug/ml, M-H liquid medium): no effect
3 | Cc1cccc2sc3nncn3c12 [Tricyclazole, tricyclazole, reference compound] |  | 172 | 10 | 12 | 6 | 14 | 4.22 | 75.83 | 1.63 | 184 | 16 | 9 | 2 | 2 | 0 | 13.62 | 3.5 |  | 
4 | B1 | scarcely observed | 67 | 12 | 13 | 8 | 16.5 | 5.05 | 70.94 | 0.53 | 218 | 19 | 5 | 0 | 0 | 0 | 9.92 | 1.56 | definite antifungal effect | inhibition zone [4]: inhibition-zone; antifungal effects [5]: definite antifungal effects; antifungal effects [6]: definite antifungal effects; antifungal effects [7]: definite antifungal effects; antifungal effects [8]: definite antifungal effects; antifungal effects relative to known antifungal antibiotics [9]: one hundred to one thousand times greater; effect on growth of C. albicans ([1]; 10 ug/ml, M-H liquid medium): completely inhibited; inhibitory effect relative to amphotericin B ([1]; on a molar basis, Ph-CA1 70 kDa, amphotericin B about 0.9 kDa): approximately ten times greater; cell membrane damage (propidium iodide entry, cells stained red) [10]: cells became red; antifungal effect on Candida albicans in vivo (C. albicans (ATCC 10231); in vivo): definite antifungal effect; in vivo antifungal activity against systemic candidiasis relative to amphotericin B (C. albicans (ATCC 10231); on a molar basis, Ph-CA1 5 ug/gm, amphotericin B 1 ug/gm): at least twenty times greater; bodyweight [11]: increased; microscopic findings in livers, kidneys or spleens ([11]; hematoxylin and eosin): no microscopic evidence of necrosis or inflammation; total effects against rice blast disease relative to tricyclazole (Magnaporthe grisea [2]; concentration and molar basis taken together, both in vivo protecting assays (Tables I and II)): 10^4 to 10^5 times; protecting effects relative to tricyclazole (Magnaporthe grisea [2]; on a molar basis, both in vivo protecting assays (Tables I and II)): three hundred times greater
5 | B2 |  |  |  |  |  |  |  |  |  |  |  |  |  |  |  |  |  | almost had no effect | inhibition effect relative to that of Ph-CA1 ([1]; 10 ug/ml, M-H liquid medium): about 30%
